Source: doi:10.1101/2024.05.02.592151 (bioRxiv, 2024)

Key:
[1] = target: T1, CAP-G2 (in recombinant human condensin II) (human, UniProt Q86XI2 1-1143); experiment: cryo-EM structure
T1 sequence: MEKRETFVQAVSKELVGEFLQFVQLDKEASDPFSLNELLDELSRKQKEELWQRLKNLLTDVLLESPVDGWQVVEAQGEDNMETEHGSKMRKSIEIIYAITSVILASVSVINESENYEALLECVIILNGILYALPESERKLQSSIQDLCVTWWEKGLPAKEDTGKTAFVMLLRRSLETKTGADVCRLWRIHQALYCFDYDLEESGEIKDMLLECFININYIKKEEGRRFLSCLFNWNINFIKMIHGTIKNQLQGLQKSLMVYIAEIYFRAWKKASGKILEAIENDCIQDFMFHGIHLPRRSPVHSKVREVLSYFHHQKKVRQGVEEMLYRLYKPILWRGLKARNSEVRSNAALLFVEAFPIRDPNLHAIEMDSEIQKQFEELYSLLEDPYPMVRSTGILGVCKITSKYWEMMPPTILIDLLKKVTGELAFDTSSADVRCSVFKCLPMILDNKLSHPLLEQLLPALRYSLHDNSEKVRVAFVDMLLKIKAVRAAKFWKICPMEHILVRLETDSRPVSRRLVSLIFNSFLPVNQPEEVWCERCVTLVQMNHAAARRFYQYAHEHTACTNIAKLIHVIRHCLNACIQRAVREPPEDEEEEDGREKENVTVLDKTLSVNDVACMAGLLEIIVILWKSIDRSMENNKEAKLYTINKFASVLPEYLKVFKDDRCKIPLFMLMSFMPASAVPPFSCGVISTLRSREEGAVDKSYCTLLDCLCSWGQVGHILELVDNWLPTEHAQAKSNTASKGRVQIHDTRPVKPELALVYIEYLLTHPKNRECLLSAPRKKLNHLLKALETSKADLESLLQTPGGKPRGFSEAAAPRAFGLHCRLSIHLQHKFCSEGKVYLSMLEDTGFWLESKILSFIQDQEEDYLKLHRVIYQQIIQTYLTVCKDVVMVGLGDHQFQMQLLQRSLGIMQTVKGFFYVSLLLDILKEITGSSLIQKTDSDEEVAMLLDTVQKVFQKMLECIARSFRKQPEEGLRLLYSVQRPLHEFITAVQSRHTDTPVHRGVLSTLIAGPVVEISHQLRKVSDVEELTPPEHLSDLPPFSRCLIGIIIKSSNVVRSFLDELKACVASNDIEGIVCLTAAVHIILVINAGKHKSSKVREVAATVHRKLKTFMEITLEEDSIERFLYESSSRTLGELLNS

[2] = target: T2, CAP-D3 (in recombinant human condensin II) (human, UniProt P42695 1-1498); experiment: cryo-EM structure
T2 sequence: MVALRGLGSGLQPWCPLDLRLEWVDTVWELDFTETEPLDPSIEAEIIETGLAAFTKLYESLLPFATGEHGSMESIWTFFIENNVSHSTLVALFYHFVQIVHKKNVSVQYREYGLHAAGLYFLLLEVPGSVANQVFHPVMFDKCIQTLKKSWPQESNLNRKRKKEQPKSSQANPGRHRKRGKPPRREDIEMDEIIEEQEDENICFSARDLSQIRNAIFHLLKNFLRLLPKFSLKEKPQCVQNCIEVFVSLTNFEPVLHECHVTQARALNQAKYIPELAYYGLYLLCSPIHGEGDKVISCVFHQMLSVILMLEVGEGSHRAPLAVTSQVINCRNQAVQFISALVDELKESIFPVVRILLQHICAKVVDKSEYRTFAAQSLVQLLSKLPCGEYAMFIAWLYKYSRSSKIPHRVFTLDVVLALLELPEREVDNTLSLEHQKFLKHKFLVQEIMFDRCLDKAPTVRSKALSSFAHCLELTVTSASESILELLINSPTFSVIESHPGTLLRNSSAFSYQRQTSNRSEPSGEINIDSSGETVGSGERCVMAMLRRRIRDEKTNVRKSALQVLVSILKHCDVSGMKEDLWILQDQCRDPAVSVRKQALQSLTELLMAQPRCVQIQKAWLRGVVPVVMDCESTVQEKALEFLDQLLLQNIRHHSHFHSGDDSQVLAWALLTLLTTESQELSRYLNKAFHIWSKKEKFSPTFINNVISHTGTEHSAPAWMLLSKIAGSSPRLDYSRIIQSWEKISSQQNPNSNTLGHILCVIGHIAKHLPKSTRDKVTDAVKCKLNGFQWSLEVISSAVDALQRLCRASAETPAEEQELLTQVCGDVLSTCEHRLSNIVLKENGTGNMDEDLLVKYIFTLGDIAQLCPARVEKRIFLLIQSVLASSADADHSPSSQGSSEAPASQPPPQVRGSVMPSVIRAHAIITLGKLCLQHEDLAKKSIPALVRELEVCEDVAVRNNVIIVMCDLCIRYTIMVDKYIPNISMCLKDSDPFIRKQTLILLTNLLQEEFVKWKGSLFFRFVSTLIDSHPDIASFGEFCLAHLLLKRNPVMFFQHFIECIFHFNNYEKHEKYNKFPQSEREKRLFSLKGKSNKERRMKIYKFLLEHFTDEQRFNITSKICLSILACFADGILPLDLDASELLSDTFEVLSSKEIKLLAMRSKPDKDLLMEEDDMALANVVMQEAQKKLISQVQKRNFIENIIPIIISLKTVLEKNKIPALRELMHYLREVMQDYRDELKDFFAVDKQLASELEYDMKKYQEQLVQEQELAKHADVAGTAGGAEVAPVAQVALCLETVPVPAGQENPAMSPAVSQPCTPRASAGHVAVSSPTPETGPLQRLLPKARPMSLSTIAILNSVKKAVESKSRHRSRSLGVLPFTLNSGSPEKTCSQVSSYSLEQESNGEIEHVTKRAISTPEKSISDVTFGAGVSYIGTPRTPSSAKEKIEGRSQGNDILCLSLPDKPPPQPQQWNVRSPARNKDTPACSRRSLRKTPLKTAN

[3] = target: SMC2 (in recombinant human condensin II) (human, UniProt O95347 1-1197); experiment: cryo-EM structure
Sequence of SMC2 (in recombinant human condensin II) (O95347 whole entry): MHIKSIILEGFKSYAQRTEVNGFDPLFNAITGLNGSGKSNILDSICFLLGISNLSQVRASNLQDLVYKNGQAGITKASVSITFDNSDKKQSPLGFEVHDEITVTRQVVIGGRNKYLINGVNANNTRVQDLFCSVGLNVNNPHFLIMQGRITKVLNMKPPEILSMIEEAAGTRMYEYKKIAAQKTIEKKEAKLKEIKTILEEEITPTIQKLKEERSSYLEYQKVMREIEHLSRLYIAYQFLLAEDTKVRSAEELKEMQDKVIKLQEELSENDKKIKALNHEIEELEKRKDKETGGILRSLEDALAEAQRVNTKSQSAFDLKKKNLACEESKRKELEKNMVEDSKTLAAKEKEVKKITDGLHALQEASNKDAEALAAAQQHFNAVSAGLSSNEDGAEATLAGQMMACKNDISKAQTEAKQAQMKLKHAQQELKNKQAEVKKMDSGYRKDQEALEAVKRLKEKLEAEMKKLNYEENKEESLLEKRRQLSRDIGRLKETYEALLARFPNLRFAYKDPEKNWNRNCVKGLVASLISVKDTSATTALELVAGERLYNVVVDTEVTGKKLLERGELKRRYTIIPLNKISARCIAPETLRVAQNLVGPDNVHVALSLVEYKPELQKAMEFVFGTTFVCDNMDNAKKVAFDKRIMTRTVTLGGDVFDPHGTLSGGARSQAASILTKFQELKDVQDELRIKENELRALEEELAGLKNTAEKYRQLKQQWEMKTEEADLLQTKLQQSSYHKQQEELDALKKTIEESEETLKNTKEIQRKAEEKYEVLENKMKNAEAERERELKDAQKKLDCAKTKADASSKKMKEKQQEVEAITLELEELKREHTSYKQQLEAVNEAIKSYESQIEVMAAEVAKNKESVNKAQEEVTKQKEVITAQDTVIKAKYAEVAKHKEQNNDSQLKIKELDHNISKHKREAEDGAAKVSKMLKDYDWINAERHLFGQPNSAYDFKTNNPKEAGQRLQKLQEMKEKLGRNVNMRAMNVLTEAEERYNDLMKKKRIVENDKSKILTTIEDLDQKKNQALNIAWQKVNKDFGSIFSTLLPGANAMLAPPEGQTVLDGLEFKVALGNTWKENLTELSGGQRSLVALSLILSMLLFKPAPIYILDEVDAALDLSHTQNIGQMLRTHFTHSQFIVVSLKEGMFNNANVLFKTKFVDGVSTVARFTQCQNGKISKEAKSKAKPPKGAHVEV

[4] = target: SMC4 (in recombinant human condensin II) (human, UniProt Q9NTJ3 2-1288); experiment: cryo-EM structure
Sequence of SMC4 (in recombinant human condensin II) (Q9NTJ3 2-1288): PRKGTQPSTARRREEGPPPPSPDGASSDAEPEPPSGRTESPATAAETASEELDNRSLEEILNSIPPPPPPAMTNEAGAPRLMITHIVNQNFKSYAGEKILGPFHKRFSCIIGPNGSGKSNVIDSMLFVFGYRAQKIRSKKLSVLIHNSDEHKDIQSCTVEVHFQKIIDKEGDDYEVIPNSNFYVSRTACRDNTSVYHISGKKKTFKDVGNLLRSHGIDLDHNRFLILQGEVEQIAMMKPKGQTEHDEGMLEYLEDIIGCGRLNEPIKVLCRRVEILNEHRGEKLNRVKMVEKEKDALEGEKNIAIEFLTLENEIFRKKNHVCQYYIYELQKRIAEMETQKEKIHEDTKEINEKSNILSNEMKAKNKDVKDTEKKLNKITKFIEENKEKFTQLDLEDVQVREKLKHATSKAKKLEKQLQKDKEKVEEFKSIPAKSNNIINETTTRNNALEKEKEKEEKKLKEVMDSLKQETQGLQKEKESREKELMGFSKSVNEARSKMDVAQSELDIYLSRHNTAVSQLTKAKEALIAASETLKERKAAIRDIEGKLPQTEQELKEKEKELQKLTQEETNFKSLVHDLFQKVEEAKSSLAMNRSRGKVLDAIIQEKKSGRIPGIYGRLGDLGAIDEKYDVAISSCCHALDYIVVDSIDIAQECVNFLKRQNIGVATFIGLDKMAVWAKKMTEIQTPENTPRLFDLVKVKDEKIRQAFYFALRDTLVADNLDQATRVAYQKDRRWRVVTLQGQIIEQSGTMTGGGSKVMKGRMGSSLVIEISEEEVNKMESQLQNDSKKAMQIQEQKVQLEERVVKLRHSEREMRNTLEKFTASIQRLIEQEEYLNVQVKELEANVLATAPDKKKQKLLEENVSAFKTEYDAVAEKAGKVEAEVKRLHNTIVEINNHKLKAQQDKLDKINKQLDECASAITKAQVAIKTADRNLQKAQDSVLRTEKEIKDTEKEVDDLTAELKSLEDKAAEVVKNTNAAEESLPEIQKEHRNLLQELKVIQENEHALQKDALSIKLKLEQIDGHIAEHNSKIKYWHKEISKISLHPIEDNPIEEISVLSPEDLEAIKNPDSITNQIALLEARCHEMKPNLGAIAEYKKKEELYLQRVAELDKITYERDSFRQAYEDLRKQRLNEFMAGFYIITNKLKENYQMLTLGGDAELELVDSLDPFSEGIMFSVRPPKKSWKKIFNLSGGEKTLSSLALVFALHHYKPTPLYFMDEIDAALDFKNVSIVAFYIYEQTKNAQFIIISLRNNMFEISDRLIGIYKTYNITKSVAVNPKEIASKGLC

[5] = target: T1, CAP-G2 (in recombinant human condensin …); experiment: cross-linking
[6] = target: condensin II pentamer (recombinant, human) (human, UniProt O95347;Q9NTJ3;Q6IBW4;P42695;Q86XI2); experiment: cross-linking
Sequence of condensin II pentamer (recombinant, human) (O95347 whole entry, chain 1 of 2): as the sequence (O95347 whole entry) above
Sequence of condensin II pentamer (recombinant, human) (Q9NTJ3 2-1288, chain 2 of 2): as the sequence (Q9NTJ3 2-1288) above

Measured: binding result

B1: CAP-H2 (in recombinant human condensin II) (natural protein)
chain: MEDVEARFAHLLQPIRDLTKNWEVDVAAQLGEYLEELDQICISFDEGKTTMNFIEAALLIQGSACVYSKKVEYLYSLVYQALDFISGKRRAKQLSSVQEDRANGVASSGVPQEAENEFLSLDDFPDSRTNVDLKNDQTPSEVLIIPLLPMALVAPDEMEKNNNPLYSRQGEVLASRKDFRMNTCVPHPRGAFMLEPEGMSPMEPAGVSPMPGTQKDTGRTEEQPMEVSVCRSPVPALGFSQEPGPSPEGPMPLGGGEDEDAEEAVELPEASAPKAALEPKESRSPQQSAALPRRYMLREREGAPEPASCVKETPDPWQSLDPFDSLESKPFKKGRPYSVPPCVEEALGQKRKRKGAAKLQDFHQWYLAAYADHADSRRLRRKGPSFADMEVLYWTHVKEQLETLRKLQRREVAEQWLRPAEEDHLEDSLEDLGAADDFLEPEEYMEPEGADPREAADLDAVPMSLSYEELVRRNVELFIATSQKFVQETELSQRIRDWEDTVQPLLQEQEQHVPFDIHTYGDQLVSRFPQLNEWCPFAELVAGQPAFEVCRSMLASLQLANDYTVEITQQPGLEMAVDTMSLRLLTHQRAHKRFQTYAAPSMAQP
binds: [1] | [2] | [3] | [4]

B2: MBP-MCPH1_(1-435) (domain or fragment)
chain: MAAPILKDVVAYVEVWSSNGTENYSKTFTTQLVDMGAKVSKTFNKQVTHVIFKDGYQSTWDKAQKRGVKLVSVLWVEKCRTAGAHIDESLFPAANMNEHLSSLIKKKRKCMQPKDFNFKTPENDKRFQKKFEKMAKELQRQKTNLDDDVPILLFESNGSLIYTPTIEINSRHHSAMEKRLQEMKEKRENLSPTSSQMIQQSHDNPSNSLCEAPLNISRDTLCSDEYFAGGLHSSFDDLCGNSGCGNQERKLEGSINDIKSDVCISSLVLKANNIHSSPSFTHLDKSSPQKFLSNLSKEEINLQRNIAGKVVTPDQKQAAGMSQETFEEKYRLSPTLSSTKGHLLIHSRPRSSSVKRKRVSHGSHSPPKEKCKRKRSTRRSIMPRLQLCRSEDRLQHVAGPALEALSCGESSYDDYFSPDNLKERYSENLPPESQL
binds: [5] | [6]
